From patent US20220048967A1 (published 2022)
Numbered stars: 1 amine (or outer) side, 2 acyl side, 3 side chain; on linkers, the order of the positions; unused ones are H or OH. Square brackets hold non-standard residues; d marks the D form. Side chains are listed from the residue outwards. Ends that are not written are not given here. * marks the point of attachment. C18 diacid = O=C(O)CCCCCCCCCCCCCCCCC(=O)*; γGlu = O=C(O)[C@H](CCC(=O)[*:2])N[*:1]; AEEA = NCCOCCOCC(=O)O; Aib = CC(C)(N)C(=O)O

Experiments:
[1] = target: T1, human gastric inhibitory peptide receptor (GIPR) (human, UniProt P48546 22-466); test: cell-based or functional assay
T1 sequence (looked up): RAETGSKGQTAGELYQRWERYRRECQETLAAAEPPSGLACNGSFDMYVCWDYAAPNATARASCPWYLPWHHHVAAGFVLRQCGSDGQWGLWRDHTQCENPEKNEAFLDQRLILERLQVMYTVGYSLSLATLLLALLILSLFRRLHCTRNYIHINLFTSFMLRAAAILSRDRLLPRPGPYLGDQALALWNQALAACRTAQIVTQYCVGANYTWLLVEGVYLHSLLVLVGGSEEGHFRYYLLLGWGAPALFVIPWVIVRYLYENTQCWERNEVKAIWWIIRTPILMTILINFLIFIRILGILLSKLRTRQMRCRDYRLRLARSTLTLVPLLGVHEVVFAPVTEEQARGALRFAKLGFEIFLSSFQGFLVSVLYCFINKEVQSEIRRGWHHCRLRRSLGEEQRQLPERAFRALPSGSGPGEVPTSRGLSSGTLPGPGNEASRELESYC

[2] = target: human GLP-1 receptor (GLP-1R) (human, UniProt P43220 24-463); test: cell-based or functional assay

| Binder | hGIPR cAMP EC50 ratio [1] | hGIPR cAMP Rel EC50 [1] | hGLP1R cAMP EC50 ratio [2] | hGLP1R cAMP Rel EC50 [2] |
| --- | --- | --- | --- | --- |
| Y[Aib]EGTFTSDYSILLDKK([AEEA-AEEA-γGlu-C18 diacid])AQ[Aib]AFLEYLIEGGPSSG-NH2 (N-terminus assumed; SMILES CC[C@H](C)[C@H](NC(=O)[C@H](CC(C)C)NC(=O)[C@H](Cc1ccc(O)cc1)NC(=O)[C@H](CCC(=O)O)NC(=O)[C@H](CC(C)C)NC(=O)[C@H](Cc1ccccc1)NC(=O)[C@H](C)NC(=O)C(C)(C)NC(=O)[C@H](CCC(N)=O)NC(=O)[C@H](C)NC(=O)[C@H](CCCCNC(=O)COCCOCCNC(=O)COCCOCCNC(=O)CC[C@H](NC(=O)CCCCCCCCCCCCCCCCC(=O)O)C(=O)O)NC(=O)[C@H](CCCCN)NC(=O)[C@H](CC(=O)O)NC(=O)[C@H](CC(C)C)NC(=O)[C@H](CC(C)C)NC(=O)[C@@H](NC(=O)[C@H](CO)NC(=O)[C@H](Cc1ccc(O)cc1)NC(=O)[C@H](CC(=O)O)NC(=O)[C@H](CO)NC(=O)[C@@H](NC(=O)[C@H](Cc1ccccc1)NC(=O)[C@@H](NC(=O)CNC(=O)[C@H](CCC(=O)O)NC(=O)C(C)(C)NC(=O)[C@@H](N)Cc1ccc(O)cc1)[C@@H](C)O)[C@@H](C)O)[C@@H](C)CC)C(=O)N[C@@H](CCC(=O)O)C(=O)NCC(=O)NCC(=O)N1CCC[C@H]1C(=O)N[C@@H](CO)C(=O)N[C@@H](CO)C(=O)NCC(N)=O) [Example 299] | 0.146 | 0.932 nM | 0.0244 | 2.54 nM |
| YXEGTFTSDYSIXLDKKAQXAFIEYLIEGGPSSG (Aib2, αMeL13, (2-[2-(2-Amino-ethoxy)-ethoxy]-acetyl)2-(γ-Glu)-CO-(CH2)16-CO2H on K17, Aib20, C-terminal NH2) [Example 300] | 5.38 | 0.0234 nM | 0.636 | 0.0867 nM |
| YXEGTXTSDYSILLDKKAQXAFIEYLIEGGPSSG (Aib2, αMeF6, (2-[2-(2-Amino-ethoxy)-ethoxy]-acetyl)2-(γ-Glu)-CO-(CH2)16-CO2H on K17, Aib20, C-terminal NH2) [Example 301] | 4.11 | 0.0346 nM | 1.61 | 0.0441 nM |
| YXEGTXTSDYSILLDKKAQXAFIEYLIEGGPSSG (Aib2, αMeF(2F)6, (2-[2-(2-Amino-ethoxy)-ethoxy]-acetyl)2-(γ-Glu)-CO-(CH2)16-CO2H on K17, Aib20, C-terminal NH2) [Example 302] | 3.78 | 0.0308 nM | 1.96 | 0.0275 nM |
| YXEGTFTSDYSIXLDEKAQXAFIEYLIEGGPSSG (Aib2, αMeL13, (2-[2-(2-Amino-ethoxy)-ethoxy]-acetyl)2-(γ-Glu)-CO-(CH2)16-CO2H on K17, Aib20, C-terminal NH2) [Example 303] | 4.2 | 0.0254 nM | 0.602 | 0.104 nM |
| YXEGTFTSDYSIXLDKKAQXEFIEYLIEGGPSSG (Aib2, αMeL13, (2-[2-(2-Amino-ethoxy)-ethoxy]-acetyl)2-(γ-Glu)-CO-(CH2)16-CO2H on K17, Aib20, C-terminal NH2) [Example 304] | 2.68 | 0.0296 nM | 0.481 | 0.191 nM |
| YXEGTFTSDYSIXLDKKAQXEFIEYLIAGGPSSG (Aib2, αMeL13, (2-[2-(2-Amino-ethoxy)-ethoxy]-acetyl)2-(γ-Glu)-CO-(CH2)16-CO2H on K17, Aib20, C-terminal NH2) [Example 306] | 3.97 | 0.0191 nM | 0.912 | 0.0711 nM |
| YXEGTXTSDYSILLDEKAQXAFIEYLIEGGPSSG (Aib2, αMeF6, (2-[2-(2-Amino-ethoxy)-ethoxy]-acetyl)2-(γ-Glu)-CO-(CH2)16-CO2H on K17, Aib20, C-terminal NH2) [Example 307] | 2.48 | 0.0285 nM | 1.29 | 0.0437 nM |
| YXEGTXTSDYSILLDKKAQXEFIEYLIEGGPSSG (Aib2, αMeF6, (2-[2-(2-Amino-ethoxy)-ethoxy]-acetyl)2-(γ-Glu)-CO-(CH2)16-CO2H on K17, Aib20, C-terminal NH2) [Example 308] | 4.06 | 0.0262 nM | 1.45 | 0.0392 nM |
